From patent US8513188B2, “Formulations comprising cyclic compounds” (priority 2006, dated 2013)

Experiments:
[1] = Dissolution of protein Rantes in organic medium (DCM/MeOH), HPLC of supernatant; assay type: physicochemical; conditions: for presence of protein in HPLC trace of supernatant: centrifuged
Method: Two samples of 0.2 mg each of the folded protein Rantes were taken. One sample was used as standard and dissolved in a fixed volume (300 ul) of water/acetonitrile 50% v/v and 30 ul where injected onto HPLC (FIG. 6, HPLC section A) .
The second sample was suspended in a mixture of DCM/MeOH 70%30% VN, (300 ul). The suspension with solid particles was centrifuged and the surnatant injected onto HPLC volume (30 ul).
Then, 2.0 mg of Nonactine were added and the mixture was vortexed. […] Then, the mixture was centrifuged and 30 ul of the supernatant were injected onto HPLC. […] In the HPLC section C the protein has a different retention time (early elution) from the standard in section A. This phenomenon could be explained by the high percentage of organic solvents (like CH2Cl2 depicted in the figure) that carried through the protein complex with nonactine causing early elution.

Caco-2 cells [2] = conditions: insulin at same concentration in physiological buffer, without formulation agent and organic vehicle
Method: Should insulin pass through the Caco-2 cell lines, it is found in the receiving chamber.
Insulin Concentration: 3 mg in 125 μl of olive oil/Peg, 92%/8%, v/v
Vehicle: olive oil/Peg (esaethylenglycol)
Positive control: Ibuprofen: 1 mg in 125 μl physiological buffer.
After vortex, 50 μl of the final mixture are added to the caco-2 cell well in double.
Active Sample Preparation (Insulin with Vehicle & Formulation Agent)
After MeOH evaporation, 115 μl of olive oil and 10 μl Peg are added. Vortex for 2-3 minutes. After vortex, 50 μl of the final mixture are added to the Caco-2 cell well in double.
Control (Insulin with Formulation Agent in Physiological Buffer; No Organic or Non-Aqueous Vehicle Present)
Vortex the mixture for 2-3 minutes. […] Then methanol is evaporated and 125 μl of physiological buffer are added; 50 μl of the above solution are added to the Caco-2 cell well in double.

[3] = dose 2: 2.6 mg desalted human insulin + 60 mg 18-crown-6 in about 310 ul mixture
Method: Dose 2: 2.6 mg of desalted human insulin with TFA counter-ions are mixed with 60 mg of 18-crown-6. To these solids, 250 μl of a mixture is added, the mixture being composed of 200 μl of a 50% mixture of Propylen glycole and 50% glycerol, 200 mg of mono-decanoyl-glycerol and 100 μl of Cremofor EL. The final volume is approximately 310 μl.

mice = assay: In vivo insulin delivery in mice by sub-lingual administration, blood glucose decrease; conditions: dose 1, sublingual
Method: Dose 1: 0.5 mg of desalted human insulin with TFA counter-ions (corresponds to 0.4 mg of non treated standard insulin) are mixed with 60 mg of 18-crown-6. […] The final volume is approximately 310 μl.
The final volume is approximately 310 μl.
Mice were treated with 6.5 μl of mixture 1 and 2, respectively. In dose 1, each mouse was treated with approximately 10 μg of desalted human insulin with TFA counter-ions (corresponds to 8 μg of non treated standard insulin). In dose 2, each mouse was treated with approximately 52 μg of desalted human insulin with TFA counter-ions (corresponds to 41.6 μg of non treated standard insulin).
Results: Insulin Delivery is Measured by Blood Glucose Decrease.

Caco-2 cells [4] = conditions: insulin incorporated into liposome according to Sigma preparation, no 18-crown-6
Method: Liposomes were purchased from Sigma-Aldrich (pre-liposome formulation 8; product No. L3531) and used according to the following procedure. Alternatively, same ingredients were purchased by other suppliers (Avanti), and liposomes were prepared according the procedure indicated by Sigma. Insulin passage was measured by HPLC injection of samples in the receiving chamber.
The organic mixture containing insulin was mixed with the lipid mixture of Sigma, then solvent was evaporated or lyophilized. Water addition generated liposomes that were tested for delivery in Caco-2 cells.

## Rantes: folded protein Rantes, a chemokine
[1]; 0.2 mg Rantes suspended in 300 ul DCM/MeOH 70%/30%, no Nonactine
  presence of protein in HPLC trace of supernatant: no presence of the protein in the chromatogram

## Insulin: human insulin, previously desalted; with TFA counter-ions in Example 8
Caco-2 cells [2]
  insulin passage across Caco-2 cells: does not cross caco-2 cells
[3]
  solubility of insulin in the dose mixture: precipitation of insulin occurred
mice; about 10 ug desalted human insulin with 18-crown-6, compared with IP injection
  effect on blood glucose (insulin delivery): close to the effects of IP injection
mice; dose about 7 times the injected control dose
  actual delivery: around 10%
Caco-2 cells [4]
  insulin passage through Caco-2 cells: did not result measurable insulin passage

## C[C@@H]1C[C@H]2CC[C@H](O2)[C@H](C)C(=O)O[C@@H](C)C[C@@H]2CC[C@@H](O2)[C@@H](C)C(=O)O[C@H](C)C[C@H]2CC[C@@H](O2)[C@H](C)C(=O)O[C@@H](C)C[C@@H]2CC[C@@H](O2)[C@@H](C)C(=O)O1 [Nonactine]
[1]; 0.2 mg Rantes in 300 ul DCM/MeOH 70%/30% + 2.0 mg Nonactine, versus water/acetonitrile standard
  presence of protein in HPLC trace of supernatant: presence of the peptide in similar proportion as per the area of the standard
[1]; 0.2 mg Rantes in 300 ul DCM/MeOH 70%/30% + 2.0 mg Nonactine, vortexed
  appearance of the mixture after addition of Nonactine: clear solution
